This is an account of results in patent publication US20060177479A1.

This assay addresses Notch receptor expressed on rat esophageal epithelial cells (rat). The assay is described as follows: cell-based or functional assay.

In the case of “Recombinant Rat Jagged-1/Fc chimera (Fc fusion)”, the Notch/CSL signaling (luciferase/Renilla intensity), immobilized Jagged-1/Fc against Fc control stood at 10 fold and the increase in luciferase activity as compared to Fc control plates, 10 nM Jagged-1/Fc precoat, 24 hours fell in the range of 4 to 10 fold.
